# From patent publication US20070202116A1, “Treatment of micro-organism infection” (priority 2001, published 2007)
# Read-outs that look alike come from different tables or passages of the source.
# B1: Aurograb: human genetic recombinant antibody (scFv with histidine tag, SEQ ID NO: 2) binding GrfA, a staphylococcal ABC transporter protein (protein)
# scFv: MAKVQLLQSATEVKKPGASVKVSCKAYGYTFTDYGITWVRQAPGQGLEWMGWISAYNGYTNYAQKFQDRITMTTDASTSTAYMELRSLRPDDTAVLYCARDREDASLLRDGHWGQGTLVTVSSGGGGSGGGGSGGGGSGGGGSETTLTQSPGTLSLSPGERATLSCRASQIVSSSYLAWYQQKPGQAPRLLIYGASSRATGIPDRFSGSGSGTDFTLTISKLEPEDFAVYYCQHYGSSSPWTSRPRDQSDIKRAAALEHHHHHH
# modifications: histidine tag; human single chain (scFv) recombinant antibody
# Assays:
# EMRSA-15 [1] = assay type: in vivo, S. aureus
# Description: Methods: 60 female CD-1 mice (22-24 g) were given 1×10^7 cfu of EMRSA-15 as a 100 μl iv bolus.
# All mice were terminated at 48 hours for culture of kidney, liver and spleen.
# Results: expressed as log cfu per gram of tissue, unless the majority of mice (>5) were cleared (ie organs were culture-negative). N/A=not applicable. (Table 7)
# EMRSA-15 [2] = assay: Data Set 2: Aurograb dose ranging study in infected mice; assay type: in vivo, S. aureus; conditions: for Kidney log cfu per gram of tissue / Liver log cfu per gram of tissue / Spleen log cfu per gram of tissue: 48 hours; for Reduction in kidney bacterial counts: Experiment 1
# Description: Aims: Dose ranging study for use of Aurograb versus S. aureus strain EMRSA-15.
# Dose range is determined by comparing cfu (expressed as the log of the cfu per gram of tissue) for different organs at different doses.
# […] All mice terminated at 48 hours for culture of kidney, liver and spleen to determine organ viability counts.
# Results: expressed as log cfu per gram of tissue
# Experiment 1: S. aureus (1.5×10^7 cfu): EMRSA-15 (Table 5)
# Experiment 2: S. aureus (9×10^6 cfu): clinical isolate EMRSA-15—low dose Aurograb (Table 6)
# [3] = test system: EMRSA strains, vancomycin resistant subpopulations, Linzolid resistant strains; assay: Checkerboard MIC / FIC / FIX of vancomycin and Aurograb (Tables 9, 10); assay type: cell-based, S. aureus; conditions: for MIC In combination: VAN with Aurograb
# Description: In order to determine the Minimum Inhibitory Concentration (MIC), the Fractional Inhibitory Concentration (FIC) and the FIX (fractional inhibitory index), the following was method was used.
# The cells were diluted in Isosensitest Broth (Oxoid, UK) to give a final inoculum of […] cells per mL. […] To this was added exogenous Aurograb in the range 0.3-25 μg/ml in a checkerboard formation. A negative control series was also prepared containing Aurograb formulation buffer alone. Cultures were incubated for 48 hours at 37° C.
# The minimum inhibitory concentration (MIC) was defined as the lowest concentration of agent at which no bacterial growth occurred and was determined by spectrophotometric evaluation of the lack of turbidity (growth) in culture.
# Fractional inhibitory concentrations (FIC) and FIX values were calculated. Synergistic activity between the two agents was defined as an FIX value ≦0.5. Indifferent activity was defined as a value of 0.5-4, and a value of ≧4 defined antagonism.
# The MIC (Alone) column indicates the minimum inhibitory concentration of the agent when administered alone. The MIC (In combination) column indicates the minimum inhibitory concentration of each drug when used in combination.
# EMRSA-15 [4] = assay type: in vivo, S. aureus; remark: listed apart in the source
# Description: Method: 60 female CD-I mice (22-24 g) were given S. aureus (a fresh clinical isolate of EMRSA-15) at a dose of 8×10^7 cfu in a 100 μl iv bolus.
# All mice were terminated at 48 hours for culture of kidney, liver and spleen. Mice fatalities prior to the 48 hour cull were not subject to organ colony counts.
# [5] = Group 4: Aurograb 2.0 mg/kg alone iv, 48 hours
# [6] = Group 5: Aurograb 0.2 mg/kg alone iv, 10 mice
# [7] = Group 5: Aurograb 0.2 mg/kg alone iv, 48 hours
# [8] = Experiment 1, 1.5×10^7 cfu EMRSA-15, Aurograb 0.2 mg/kg single iv dose
# [9] = Experiment 1, 1.5×10^7 cfu EMRSA-15, Aurograb 1 mg/kg single iv dose
# [10] = Experiment 1, 1.5×10^7 cfu EMRSA-15, Aurograb 2 mg/kg single iv dose
# [11] = Experiment 2, 9×10^6 cfu clinical isolate EMRSA-15, Aurograb 0.2 mg/kg
# [12] = Experiment 2, doses as low as 0.2 mg
# [13] = Group 5: Aurograb 2.0 mg/kg alone iv, 48 hours
molecule,measurement,setting,value
B1,"Spleen, number of mice cleared","EMRSA-15 [1]; Group 4: Aurograb 2.0 mg/kg alone iv, 10 mice",4
same,Kidney Log cfu/g of tissue,EMRSA-15 [1]; [5],7.30 ± 1.26 Log cfu/g of tissue
same,Spleen Log cfu/g of tissue,EMRSA-15 [1]; [5],3.54 ± 0.61 Log cfu/g of tissue
same,"Liver, number of mice cleared",EMRSA-15 [1]; [6],2
same,"Spleen, number of mice cleared",EMRSA-15 [1]; [6],3
same,Kidney Log cfu/g of tissue,EMRSA-15 [1]; [7],7.50 ± 1.53 Log cfu/g of tissue
same,Liver Log cfu/g of tissue,EMRSA-15 [1]; [7],4.28 ± 1.28 Log cfu/g of tissue
same,Spleen Log cfu/g of tissue,EMRSA-15 [1]; [7],3.91 ± 0.87 Log cfu/g of tissue
same,Kidney log cfu per gram of tissue,EMRSA-15 [2]; [8],8.5 ± 2.55 log cfu per gram of tissue
same,Liver log cfu per gram of tissue,EMRSA-15 [2]; [8],6.61 ± 3.03 log cfu per gram of tissue
same,Spleen log cfu per gram of tissue,EMRSA-15 [2]; [8],5.69 ± 1.16 log cfu per gram of tissue
same,Kidney log cfu per gram of tissue,EMRSA-15 [2]; [9],8.7 ± 2.6 log cfu per gram of tissue
same,Liver log cfu per gram of tissue,EMRSA-15 [2]; [9],5.40 ± 1.38 log cfu per gram of tissue
same,Spleen log cfu per gram of tissue,EMRSA-15 [2]; [9],5.33 ± 1.21 log cfu per gram of tissue
same,Kidney log cfu per gram of tissue,EMRSA-15 [2]; [10],7.62 ± 1.16 log cfu per gram of tissue
same,Liver log cfu per gram of tissue,EMRSA-15 [2]; [10],5.22 ± 1.39 log cfu per gram of tissue
same,Spleen log cfu per gram of tissue,EMRSA-15 [2]; [10],5.10 ± 1.29 log cfu per gram of tissue
same,Reduction in kidney bacterial counts,EMRSA-15 [2]; highest dose (2.0 mg/kg),0.8 log
same,Reduction in kidney bacterial counts,EMRSA-15 [2]; lower doses,no reduction
same,Kidney log cfu per gram of tissue,EMRSA-15 [2]; [11],7.14 ± 1.28 log cfu per gram of tissue
same,Liver log cfu per gram of tissue,EMRSA-15 [2]; [11],3.13 ± 0.44 log cfu per gram of tissue
same,Spleen log cfu per gram of tissue,EMRSA-15 [2]; [11],3.40 ± 0.64 log cfu per gram of tissue
same,Bacterial killing in the liver and spleen,EMRSA-15 [2]; [12],evidence of bacterial killing
same,Reduction in viable staphylococci in the kidneys,EMRSA-15 [2]; [12],no reduction
same,Drop in liver and spleen counts,EMRSA-15 [2]; single dose of 2.0 mg/kg in mice,approximately 2.0 log
same,FIC,[3]; EMRSA strain 1,0.006
same,MIC Alone,[3]; EMRSA strain 1,125 µg/mL
same,MIC In combination,[3]; EMRSA strain 1,0.75 µg/mL
same,FIC,[3]; EMRSA strain 1A,0.05
same,MIC Alone,[3]; EMRSA strain 1A,250 µg/mL
same,MIC In combination,[3]; EMRSA strain 1A,12.5 µg/mL
same,FIC,[3]; EMRSA strain 2,0.006
same,MIC Alone,[3]; EMRSA strain 2,125 µg/mL
same,MIC In combination,[3]; EMRSA strain 2,0.75 µg/mL
same,FIC,[3]; EMRSA strain 2A,0.05
same,MIC Alone,[3]; EMRSA strain 2A,250 µg/mL
same,MIC In combination,[3]; EMRSA strain 2A,12.5 µg/mL
same,FIC,[3]; EMRSA strain 3,0.012
same,MIC Alone,[3]; EMRSA strain 3,250 µg/mL
same,MIC In combination,[3]; EMRSA strain 3,3 µg/mL
same,FIC,[3]; EMRSA strain 4,0.0026
same,MIC Alone,[3]; EMRSA strain 4,125 µg/mL
same,MIC In combination,[3]; EMRSA strain 4,0.325 µg/mL
same,FIC,[3]; EMRSA strain 5,0.001
same,MIC Alone,[3]; EMRSA strain 5,250 µg/mL
same,MIC In combination,[3]; EMRSA strain 5,0.325 µg/mL
same,FIC,[3]; EMRSA strain 6,0.0026
same,MIC Alone,[3]; EMRSA strain 6,125 µg/mL
same,MIC In combination,[3]; EMRSA strain 6,0.325 µg/mL
same,FIC,[3]; EMRSA strain 7,0.0026
same,MIC Alone,[3]; EMRSA strain 7,125 µg/mL
same,MIC In combination,[3]; EMRSA strain 7,0.325 µg/mL
same,FIC,[3]; EMRSA strain 8,0.0013
same,MIC Alone,[3]; EMRSA strain 8,250 µg/mL
same,MIC In combination,[3]; EMRSA strain 8,0.325 µg/mL
same,FIC,[3]; EMRSA strain 8A,0.05
same,MIC Alone,[3]; EMRSA strain 8A,250 µg/mL
same,MIC In combination,[3]; EMRSA strain 8A,12.5 µg/mL
same,FIC,[3]; EMRSA strain 9,0.006
same,MIC Alone,[3]; EMRSA strain 9,125 µg/mL
same,MIC In combination,[3]; EMRSA strain 9,0.75 µg/mL
same,FIC,[3]; EMRSA strain 10,0.012
same,MIC Alone,[3]; EMRSA strain 10,125 µg/mL
same,MIC In combination,[3]; EMRSA strain 10,1.5 µg/mL
same,FIC,[3]; EMRSA strain 11,0.006
same,MIC Alone,[3]; EMRSA strain 11,125 µg/mL
same,MIC In combination,[3]; EMRSA strain 11,0.75 µg/mL
same,FIC,[3]; EMRSA strain 11A,0.05
same,MIC Alone,[3]; EMRSA strain 11A,250 µg/mL
same,MIC In combination,[3]; EMRSA strain 11A,12.5 µg/mL
same,FIC,[3]; EMRSA strain 12,0.0013
same,MIC Alone,[3]; EMRSA strain 12,250 µg/mL
same,MIC In combination,[3]; EMRSA strain 12,0.325 µg/mL
same,FIC,[3]; EMRSA strain 12A,0.003
same,MIC Alone,[3]; EMRSA strain 12A,250 µg/mL
same,MIC In combination,[3]; EMRSA strain 12A,0.75 µg/mL
same,FIC,[3]; EMRSA strain 13,0.006
same,MIC Alone,[3]; EMRSA strain 13,250 µg/mL
same,MIC In combination,[3]; EMRSA strain 13,1.5 µg/mL
same,FIC,[3]; EMRSA strain 14,0.012
same,MIC Alone,[3]; EMRSA strain 14,125 µg/mL
same,MIC In combination,[3]; EMRSA strain 14,1.5 µg/mL
same,FIC,[3]; EMRSA strain 15,0.012
same,MIC Alone,[3]; EMRSA strain 15,125 µg/mL
same,MIC In combination,[3]; EMRSA strain 15,1.5 µg/mL
same,FIC,[3]; EMRSA strain 15A,0.006
same,MIC Alone,[3]; EMRSA strain 15A,250 µg/mL
same,MIC In combination,[3]; EMRSA strain 15A,0.75 µg/mL
same,FIC,[3]; EMRSA strain 16,0.012
same,MIC Alone,[3]; EMRSA strain 16,250 µg/mL
same,MIC In combination,[3]; EMRSA strain 16,1.5 µg/mL
same,FIC,[3]; EMRSA strain 17,0.006
same,MIC Alone,[3]; EMRSA strain 17,250 µg/mL
same,MIC In combination,[3]; EMRSA strain 17,0.75 µg/mL
same,FIC,[3]; NARSA 1 (Hiramatsu),0.001
same,MIC Alone,[3]; NARSA 1 (Hiramatsu),250 µg/mL
same,MIC In combination,[3]; NARSA 1 (Hiramatsu),0.325 µg/mL
same,FIC,[3]; NARSA 2 (Hiramatsu),0.001
same,MIC Alone,[3]; NARSA 2 (Hiramatsu),250 µg/mL
same,MIC In combination,[3]; NARSA 2 (Hiramatsu),0.325 µg/mL
same,FIC,[3]; NARSA 12 (France),0.003
same,MIC Alone,[3]; NARSA 12 (France),250 µg/mL
same,MIC In combination,[3]; NARSA 12 (France),0.75 µg/mL
same,FIC,[3]; NARSA 17 (New York),0.001
same,MIC Alone,[3]; NARSA 17 (New York),250 µg/mL
same,MIC In combination,[3]; NARSA 17 (New York),0.325 µg/mL
same,FIC,[3]; NARSA 119 (Linezolid R),0.02
same,MIC Alone,[3]; NARSA 119 (Linezolid R),125 µg/mL
same,MIC In combination,[3]; NARSA 119 (Linezolid R),3 µg/mL
same,FIC,[3]; NARSA 120 (Linezolid R),0.02
same,MIC Alone,[3]; NARSA 120 (Linezolid R),125 µg/mL
same,MIC In combination,[3]; NARSA 120 (Linezolid R),3 µg/mL
same,FIC,[3]; NARSA 121 (Linezolid R),0.02
same,MIC Alone,[3]; NARSA 121 (Linezolid R),125 µg/mL
same,MIC In combination,[3]; NARSA 121 (Linezolid R),3 µg/mL
same,Mortality,"EMRSA-15 [4]; Aurograb alone 2.0 mg/kg, 10 mice, untreated group 7 deaths",4 deaths
same,Survivors at 24 h (n = 10),"EMRSA-15 [4]; Group 5: Aurograb 2.0 mg/kg alone iv, 8×10^7 cfu",6
same,Kidney Log cfu/g tissue,EMRSA-15 [4]; [13],7.87 ± 1 Log cfu/g tissue
same,Liver Log cfu/g tissue,EMRSA-15 [4]; [13],5.18 ± 0.57 Log cfu/g tissue
same,Spleen Log cfu/g tissue,EMRSA-15 [4]; [13],5.53 ± 2.74 Log cfu/g tissue
